Patent publication US20180273587A1 (AILERON THERAPEUTICS, published 2018)
Blank lines part the entries; values can stand above or below the molecule they belong to. Positions of bridges follow the written chain, without caps; N, C: chain ends. Non-standard residues stand in square brackets, D forms with d. R8 = C=CCCCCCC[C@@](C)(N)C(=O)O; S5 = C=CCCC[C@](C)(N)C(=O)O; Aib = CC(C)(N)C(=O)O

Columns and labels:
BCL-2 [1] = molecular target: BCL-2 (UniProt P10415); assay: Ki (Table 8); method not stated
Sequence of BCL-2 (UniProt P10415) (P10415 1-217 limits assumed): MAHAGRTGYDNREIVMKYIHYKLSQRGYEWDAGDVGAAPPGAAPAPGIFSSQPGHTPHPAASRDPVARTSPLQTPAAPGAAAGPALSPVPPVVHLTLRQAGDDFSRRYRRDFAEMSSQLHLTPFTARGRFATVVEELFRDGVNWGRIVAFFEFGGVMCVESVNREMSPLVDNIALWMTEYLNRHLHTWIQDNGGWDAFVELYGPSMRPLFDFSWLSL

MCL-1 [2] = molecular target: MCL-1 (UniProt Q07820); assay: Ki (Table 8); method not stated
Sequence of MCL-1 (UniProt Q07820) (Q07820 172-327 limits assumed): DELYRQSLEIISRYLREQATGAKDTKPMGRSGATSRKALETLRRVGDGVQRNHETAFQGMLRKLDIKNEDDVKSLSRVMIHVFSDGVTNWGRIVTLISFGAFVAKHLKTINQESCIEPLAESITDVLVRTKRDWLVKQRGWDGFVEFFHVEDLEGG

BCL-XL [3] = molecular target: BCL-XL (UniProt Q07817); assay: Ki (Table 8); method not stated
Sequence of BCL-XL (UniProt Q07817) (Q07817 1-209): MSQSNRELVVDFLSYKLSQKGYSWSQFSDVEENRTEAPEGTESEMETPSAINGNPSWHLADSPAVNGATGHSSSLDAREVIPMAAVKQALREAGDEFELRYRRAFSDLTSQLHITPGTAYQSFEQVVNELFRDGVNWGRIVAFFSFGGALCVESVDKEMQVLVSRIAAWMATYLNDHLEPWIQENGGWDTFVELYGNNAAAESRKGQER

MCL-1 [4] = molecular target: T1, MCL-1 (UniProt Q07820 172-327, limits assumed); assay: inhibitory constant assay (Table 7); method not stated
T1 construct: Target of the Ki columns; also called Myeloid cell leukemia 1
T1 sequence (Q07820 172-327 limits assumed): as the sequence (Q07820 172-327 limits assumed) above

BCL-2 [5] = molecular target: T2, BCL-2 (UniProt P10415 1-217, limits assumed); assay: as above
T2 construct: Target of the Ki columns
T2 sequence (P10415 1-217 limits assumed): as the sequence (P10415 1-217 limits assumed) above

BCL-XL [6] = molecular target: T3, BCL-XL (UniProt Q07817 1-209); assay: as above
T3 construct: Target of the Ki columns
T3 sequence (Q07817 1-209): as the sequence (Q07817 1-209) above

MCL-1 [7] = molecular target: T1, MCL-1; assay: Ki (Table 8); method not stated
BCL-2 [8] = molecular target: T2, BCL-2; assay: Ki (Table 8); method not stated
BCL-XL [9] = molecular target: T3, BCL-XL; assay: Ki (Table 8); method not stated

- Ki (BCL-2 [1]): 29.6 nM
- Ki (MCL-1 [2]): 2.7 nM
- Ki (BCL-XL [3]): 6.2 nM
Molecule: BIM-SAHBA1 (peptide)

- Ki (MCL-1 [4]): 11 nM
- Ki (BCL-2 [5]): 151 nM
- Ki (BCL-XL [6]): 178 nM
- Ki (MCL-1 [7]): 17 nM
- Ki (BCL-2 [8]): 215 nM
- Ki (BCL-XL [9]): 114 nM
B1: Cross-linked peptide #14 (peptide)
peptide: Ac-RWIAQALR[S5]IGD[S5]LN[Aib]FYAHH-NH2
modifications: staple 9-13
SMILES: CC[C@H](C)[C@H](NC(=O)[C@H](Cc1c[nH]c2ccccc12)NC(=O)[C@H](CCCNC(=N)N)NC(C)=O)C(=O)N[C@@H](C)C(=O)N[C@@H](CCC(N)=O)C(=O)N[C@@H](C)C(=O)N[C@@H](CC(C)C)C(=O)N[C@@H](CCCNC(=N)N)C(=O)N[C@@]1(C)CCCC=CCCC[C@@](C)(C(=O)N[C@@H](CC(C)C)C(=O)N[C@@H](CC(N)=O)C(=O)NC(C)(C)C(=O)N[C@@H](Cc2ccccc2)C(=O)N[C@@H](Cc2ccc(O)cc2)C(=O)N[C@@H](C)C(=O)N[C@@H](Cc2c[nH]cn2)C(=O)N[C@@H](Cc2c[nH]cn2)C(N)=O)NC(=O)[C@H](CC(=O)O)NC(=O)CNC(=O)[C@H]([C@@H](C)CC)NC1=O

- Ki (MCL-1 [7]): 10.6 nM
- Ki (BCL-2 [8]): 12.8 nM
- Ki (BCL-XL [9]): 5.2 nM
B2: Cross-linked peptide #15 (peptide)
peptide: Ac-IWIAQALR[R8]IGDEFN[S5]YYARR-NH2
modifications: staple 9-16
SMILES: CC[C@H](C)[C@H](NC(C)=O)C(=O)N[C@@H](Cc1c[nH]c2ccccc12)C(=O)N[C@H](C(=O)N[C@@H](C)C(=O)N[C@@H](CCC(N)=O)C(=O)N[C@@H](C)C(=O)N[C@@H](CC(C)C)C(=O)N[C@@H](CCCNC(=N)N)C(=O)N[C@]1(C)CCCCCCC=CCCC[C@@](C)(C(=O)N[C@@H](Cc2ccc(O)cc2)C(=O)N[C@@H](Cc2ccc(O)cc2)C(=O)N[C@@H](C)C(=O)N[C@@H](CCCNC(=N)N)C(=O)N[C@@H](CCCNC(=N)N)C(N)=O)NC(=O)[C@H](CC(N)=O)NC(=O)[C@H](Cc2ccccc2)NC(=O)[C@H](CCC(=O)O)NC(=O)[C@H](CC(=O)O)NC(=O)CNC(=O)[C@H]([C@@H](C)CC)NC1=O)[C@@H](C)CC
